For one data set, the target named is BmWOR (Brevibacillus massiliensis, UniProt Z9C1J5R5O5). Description: benzyl viologen reduction followed at […] nm. As to conditions: apparent Km; benzyl viologen 1 mM as electron acceptor, 50 mM HEPES pH 7.5, 35 °C, anaerobic.
For data set [1], the target named is Brevibacillus massiliensis tungsten-containing oxidoreductase (BmWOR) (Brevibacillus massiliensis).
The subject of a further data set is O=Cc1ccccc1. Description: purified protein. As to conditions: apparent Km, benzyl viologen 1 mM as electron acceptor, 50 mM HEPES pH 7.5, 35 °C, anaerobic.
The next data set deals with O=C/C=C/c1ccccc1. Put plainly: purified protein. As to conditions: apparent Km, benzyl viologen 1 mM as electron acceptor, 50 mM HEPES pH 7.5, 35 °C, anaerobic.
For a further data set, the system named is CC(C)CC=O. Description: purified protein. As to conditions: apparent Km, benzyl viologen 1 mM as electron acceptor, 50 mM HEPES pH 7.5, 35 °C, anaerobic.
The next data set has as its system O=Cc1ccco1. Description: purified protein. As to conditions: apparent Km, benzyl viologen 1 mM as electron acceptor, 50 mM HEPES pH 7.5, 35 °C, anaerobic.

Sequence of BmWOR (Z9C1J5R5O5 1-602): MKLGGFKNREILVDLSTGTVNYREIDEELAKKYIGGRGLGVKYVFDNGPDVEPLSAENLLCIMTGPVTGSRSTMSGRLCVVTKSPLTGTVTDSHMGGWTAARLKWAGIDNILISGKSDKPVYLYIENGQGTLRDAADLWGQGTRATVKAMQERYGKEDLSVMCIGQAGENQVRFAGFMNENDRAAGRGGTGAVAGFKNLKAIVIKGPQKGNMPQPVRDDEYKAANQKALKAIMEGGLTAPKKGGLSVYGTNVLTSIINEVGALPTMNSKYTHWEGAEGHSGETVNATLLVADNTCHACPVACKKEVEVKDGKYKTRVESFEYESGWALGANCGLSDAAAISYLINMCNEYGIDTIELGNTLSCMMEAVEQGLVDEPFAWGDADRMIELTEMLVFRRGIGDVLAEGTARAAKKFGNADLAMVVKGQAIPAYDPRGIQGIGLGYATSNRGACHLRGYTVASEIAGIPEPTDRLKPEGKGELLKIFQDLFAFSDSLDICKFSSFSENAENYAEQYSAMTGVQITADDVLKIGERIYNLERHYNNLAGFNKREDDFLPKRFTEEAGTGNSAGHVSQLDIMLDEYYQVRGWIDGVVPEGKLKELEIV

Tolualdehyde: the Km at BmWOR was found to be 6.1 ± 2.1 µM.

As for “Brevibacillus massiliensis ferredoxin (BmFd) (natural protein)”, in data set [1], the apparent Km for Fd as electron acceptor of BmWOR in the benzaldehyde oxidation assay (enzyme activity, Fd reduction followed at 425 nm) is below 5 µM.

Take BmWOR (Brevibacillus massiliensis): the Km in the data set on O=Cc1ccccc1 came out at 4.2 ± 1.0 µM; in the data set with O=C/C=C/c1ccccc1, 5.6 ± 1.2 µM; in the data set with CC(C)CC=O, 3.6 ± 0.9 µM; in the data set with O=Cc1ccco1 it was 2.1 ± 2.0 µM.

Values taken from PMC9424855, “Obligately aerobic human gut microbe expresses an oxygen resistant tungsten-containing oxidoreductase for detoxifying gut aldehydes” (Frontiers in Microbiology, 2022).
